Measured values published in PMC5884298.

Target: thrombin (UniProt P00734;P00734 328-363;364-622)
Experiment: SERS mapping on gold nanopillars; thrombin 0.0873-87.3 nM; complex bands 822, 1140, 1558 cm-1; no Kd given; Thiolated aptamer on gold-coated Si nanopillars, MCH passivation (stated for quadruplex control); PBS pH 7.4 listed; thrombin incubation buffer and temperature

B1: TBA15 (thiolated thrombin-binding aptamer) (structured_DNA)
DNA: GGTTGGTGTGGTTGG
modifications: 5'-HS-(CH2)6 thiol linker (printed HS-(CH2)5-CH2-D/)
Does B1 bind?
Result: binds
